Measured values: the supplement of paper PMC9112550, “Optimization of the antimicrobial peptide Bac7 by deep mutational scanning” (BMC Biology, 2022)

What follows are sequences tested on Escherichia coli TOP10 (assay: shrunken log2 fold change of peptide-encoding DNA abundance (4.5 h post-induction vs induction); higher = less antimicrobial activity (less host growth inhibition)). Conditions: time post-induction: 4.5 h; library: site-saturation at positions 5, 18, 19, 20.
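Also: peptides expressed intracellularly from a pBAD plasmid library in pooled LB shake-flask culture, induced with 0.3% L-arabinose, DNA abundance read by NGS, three biological replicates, DESeq2 with apeglm shrinkage.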

Question: For RRIRIRPPRLPRPRPRPRQCPRP, which “shrunken log2 fold change” value is on record?
Answer: Its value is -0.127.

Question: How did the “shrunken log2 fold change” value turn out when RRIRIRPPRLPRPRPRPRQTPRP was run?
Answer: Its value is -0.0527.

Question: Which “shrunken log2 fold change” value does the source give for RRIRIRPPRLPRPRPRPRRKPRP here?
Answer: The value was 0.0881.

Question: For RRIRIRPPRLPRPRPRPRSVPRP, which “shrunken log2 fold change” value is on record?
Answer: The value was -0.056.

Question: For RRIRIRPPRLPRPRPRPRTLPRP, which “shrunken log2 fold change” value is on record?
Answer: Its value is -0.259.

Question: For RRIRIRPPRLPRPRPRPRWLPRP, which “shrunken log2 fold change” value is on record?
Answer: The value was 0.119.

Question: How did the “shrunken log2 fold change” value turn out when RRIRIRPPRLPRPRPRPRYPPRP was run?
Answer: The value was -0.0444.

Question: For RRIRIRPPRLPRPRPRPSAFPRP, which “shrunken log2 fold change” value is on record?
Answer: The value was -0.15.

Question: How did the “shrunken log2 fold change” value turn out when RRIRIRPPRLPRPRPRPSCPPRP was run?
Answer: Its value is -0.776.

Question: For RRIRIRPPRLPRPRPRPSDRPRP, which “shrunken log2 fold change” value is on record?
Answer: Its value is -0.24.

Question: How did the “shrunken log2 fold change” value turn out when RRIRIRPPRLPRPRPRPSGPPRP was run?
Answer: The value was -0.21.

Question: For RRIRIRPPRLPRPRPRPSGQPRP, which “shrunken log2 fold change” value is on record?
Answer: The value was -0.0453.

Question: RRIRIRPPRLPRPRPRPSHAPRP was tested. Which “shrunken log2 fold change” value did it give?
Answer: Its value is -0.283.

Question: With RRIRIRPPRLPRPRPRPSLCPRP as the sequence, how does the “shrunken log2 fold change” value read?
Answer: Its value is -0.242.

Question: RRIRIRPPRLPRPRPRPSNFPRP was tested. Which “shrunken log2 fold change” value did it give?
Answer: The value was -0.335.

Question: For RRIRIRPPRLPRPRPRPSNMPRP, which “shrunken log2 fold change” value is on record?
Answer: Its value is -0.353.

Question: With RRIRIRPPRLPRPRPRPSRSPRP as the sequence, how does the “shrunken log2 fold change” value read?
Answer: The value was -0.605.

Question: For RRIRIRPPRLPRPRPRPSSVPRP, which “shrunken log2 fold change” value is on record?
Answer: The value was -1.03.

Question: Which “shrunken log2 fold change” value does the source give for RRIRIRPPRLPRPRPRPSTKPRP here?
Answer: The value was -1.14.

Question: With RRIRIRPPRLPRPRPRPSTQPRP as the sequence, how does the “shrunken log2 fold change” value read?
Answer: Its value is -0.0353.

Question: For RRIRIRPPRLPRPRPRPTAHPRP, which “shrunken log2 fold change” value is on record?
Answer: Its value is -0.313.

Question: How did the “shrunken log2 fold change” value turn out when RRIRIRPPRLPRPRPRPTCEPRP was run?
Answer: The value was -0.132.

Question: For RRIRIRPPRLPRPRPRPTCFPRP, which “shrunken log2 fold change” value is on record?
Answer: Its value is -0.249.

Question: RRIRIRPPRLPRPRPRPTCQPRP was tested. Which “shrunken log2 fold change” value did it give?
Answer: Its value is -0.215.

Question: RRIRIRPPRLPRPRPRPTDFPRP was tested. Which “shrunken log2 fold change” value did it give?
Answer: The value was -0.109.

Question: How did the “shrunken log2 fold change” value turn out when RRIRIRPPRLPRPRPRPTEIPRP was run?
Answer: The value was -0.305.

Question: RRIRIRPPRLPRPRPRPTETPRP was tested. Which “shrunken log2 fold change” value did it give?
Answer: The value was 0.0225.

Question: With RRIRIRPPRLPRPRPRPTFSPRP as the sequence, how does the “shrunken log2 fold change” value read?
Answer: Its value is -0.545.

Question: Which “shrunken log2 fold change” value does the source give for RRIRIRPPRLPRPRPRPTIQPRP here?
Answer: The value was -0.334.

Question: Which “shrunken log2 fold change” value does the source give for RRIRIRPPRLPRPRPRPTIWPRP here?
Answer: The value was -0.157.

Question: With RRIRIRPPRLPRPRPRPTLCPRP as the sequence, how does the “shrunken log2 fold change” value read?
Answer: The value was 0.0503.

Question: Which “shrunken log2 fold change” value does the source give for RRIRIRPPRLPRPRPRPTLNPRP here?
Answer: The value was -0.181.

Question: With RRIRIRPPRLPRPRPRPTLSPRP as the sequence, how does the “shrunken log2 fold change” value read?
Answer: The value was -0.0751.

Question: Which “shrunken log2 fold change” value does the source give for RRIRIRPPRLPRPRPRPTLVPRP here?
Answer: The value was 0.0386.

Question: How did the “shrunken log2 fold change” value turn out when RRIRIRPPRLPRPRPRPTNQPRP was run?
Answer: Its value is -0.28.

Question: Which “shrunken log2 fold change” value does the source give for RRIRIRPPRLPRPRPRPTNSPRP here?
Answer: Its value is -0.827.

Question: RRIRIRPPRLPRPRPRPTPGPRP was tested. Which “shrunken log2 fold change” value did it give?
Answer: The value was 0.131.

Question: RRIRIRPPRLPRPRPRPTPQPRP was tested. Which “shrunken log2 fold change” value did it give?
Answer: Its value is -0.117.

Question: Which “shrunken log2 fold change” value does the source give for RRIRIRPPRLPRPRPRPTQQPRP here?
Answer: The value was 0.0936.

Question: Which “shrunken log2 fold change” value does the source give for RRIRIRPPRLPRPRPRPTRSPRP here?
Answer: Its value is -0.00877.

Question: Which “shrunken log2 fold change” value does the source give for RRIRIRPPRLPRPRPRPTRVPRP here?
Answer: The value was 0.167.

Question: How did the “shrunken log2 fold change” value turn out when RRIRIRPPRLPRPRPRPTSCPRP was run?
Answer: Its value is -0.0992.

Question: With RRIRIRPPRLPRPRPRPTSMPRP as the sequence, how does the “shrunken log2 fold change” value read?
Answer: Its value is -0.0835.

Question: Which “shrunken log2 fold change” value does the source give for RRIRIRPPRLPRPRPRPTWWPRP here?
Answer: Its value is 0.0347.

Question: How did the “shrunken log2 fold change” value turn out when RRIRIRPPRLPRPRPRPTWYPRP was run?
Answer: Its value is -0.668.

Question: RRIRIRPPRLPRPRPRPTYFPRP was tested. Which “shrunken log2 fold change” value did it give?
Answer: The value was -0.522.

Question: RRIRIRPPRLPRPRPRPTYMPRP was tested. Which “shrunken log2 fold change” value did it give?
Answer: The value was -0.707.

Question: How did the “shrunken log2 fold change” value turn out when RRIRIRPPRLPRPRPRPVAEPRP was run?
Answer: Its value is 0.243.

Question: RRIRIRPPRLPRPRPRPVATPRP was tested. Which “shrunken log2 fold change” value did it give?
Answer: Its value is -0.374.

Question: RRIRIRPPRLPRPRPRPVDNPRP was tested. Which “shrunken log2 fold change” value did it give?
Answer: The value was -0.0726.

Question: With RRIRIRPPRLPRPRPRPVDVPRP as the sequence, how does the “shrunken log2 fold change” value read?
Answer: Its value is -0.675.

Question: With RRIRIRPPRLPRPRPRPVEEPRP as the sequence, how does the “shrunken log2 fold change” value read?
Answer: Its value is -0.0729.

Question: Which “shrunken log2 fold change” value does the source give for RRIRIRPPRLPRPRPRPVEHPRP here?
Answer: The value was 0.0873.

Question: For RRIRIRPPRLPRPRPRPVFQPRP, which “shrunken log2 fold change” value is on record?
Answer: Its value is -0.19.

Question: Which “shrunken log2 fold change” value does the source give for RRIRIRPPRLPRPRPRPVGYPRP here?
Answer: The value was 0.0961.

Question: How did the “shrunken log2 fold change” value turn out when RRIRIRPPRLPRPRPRPVIRPRP was run?
Answer: Its value is 0.00816.

Question: How did the “shrunken log2 fold change” value turn out when RRIRIRPPRLPRPRPRPVKAPRP was run?
Answer: The value was -0.0571.

Question: For RRIRIRPPRLPRPRPRPVKVPRP, which “shrunken log2 fold change” value is on record?
Answer: The value was -0.00567.

Question: Which “shrunken log2 fold change” value does the source give for RRIRIRPPRLPRPRPRPVLDPRP here?
Answer: The value was 0.0135.

Question: With RRIRIRPPRLPRPRPRPVLEPRP as the sequence, how does the “shrunken log2 fold change” value read?
Answer: The value was 0.0298.

Question: With RRIRIRPPRLPRPRPRPVNWPRP as the sequence, how does the “shrunken log2 fold change” value read?
Answer: The value was -0.229.

Question: RRIRIRPPRLPRPRPRPVPNPRP was tested. Which “shrunken log2 fold change” value did it give?
Answer: Its value is -0.00284.

Question: How did the “shrunken log2 fold change” value turn out when RRIRIRPPRLPRPRPRPVQFPRP was run?
Answer: The value was -0.303.

Question: With RRIRIRPPRLPRPRPRPVQHPRP as the sequence, how does the “shrunken log2 fold change” value read?
Answer: Its value is -0.38.

Question: For RRIRIRPPRLPRPRPRPVRMPRP, which “shrunken log2 fold change” value is on record?
Answer: The value was 0.109.

Question: For RRIRIRPPRLPRPRPRPVRVPRP, which “shrunken log2 fold change” value is on record?
Answer: Its value is 0.458.

Question: Which “shrunken log2 fold change” value does the source give for RRIRIRPPRLPRPRPRPVSKPRP here?
Answer: The value was -0.0544.

Question: How did the “shrunken log2 fold change” value turn out when RRIRIRPPRLPRPRPRPVTQPRP was run?
Answer: The value was -0.0794.

Question: Which “shrunken log2 fold change” value does the source give for RRIRIRPPRLPRPRPRPVVRPRP here?
Answer: Its value is 0.11.

Question: Which “shrunken log2 fold change” value does the source give for RRIRIRPPRLPRPRPRPVWKPRP here?
Answer: Its value is 0.154.

Question: Which “shrunken log2 fold change” value does the source give for RRIRIRPPRLPRPRPRPVYAPRP here?
Answer: The value was -0.517.

Question: How did the “shrunken log2 fold change” value turn out when RRIRIRPPRLPRPRPRPWCGPRP was run?
Answer: Its value is -0.454.

Question: For RRIRIRPPRLPRPRPRPWCQPRP, which “shrunken log2 fold change” value is on record?
Answer: Its value is -0.339.

Question: How did the “shrunken log2 fold change” value turn out when RRIRIRPPRLPRPRPRPWCVPRP was run?
Answer: The value was -0.698.

Question: For RRIRIRPPRLPRPRPRPWCWPRP, which “shrunken log2 fold change” value is on record?
Answer: Its value is -0.146.
